From publication PMC10639101

The substances below were run against SecYEG labeled at SecY residue 292 with AF488 (E. coli) (UniProt P0AGA2) (assay: FRET or BRET).
“SecA-PhoA chimera labeled at PhoA residue 2 with AF647” was tested, and the FRET efficiency was 0.25.
Substance “SecA-PhoA chimera labeled at PhoA residue 22 with AF647” has an FRET efficiency of 0.46.
Work on “SecA-PhoA chimera labeled at PhoA residue 37 with AF647” yielded an FRET efficiency of 0.24.
With “SecA-PhoA chimera labeled at PhoA residue 45 with AF647” the FRET efficiency was 0.3.
